Test results as given in US20100069304A1, “PROTECTIVE EFFECTS OF INHIBITING THE INTERACTION OF CALMODULIN AND MUTANT HUNTINGTIN PROTEIN” (priority 2008, published 2010).

Target: htt-N63-148Q (63 amino acid N-terminal huntingtin fragment containing 148 polyglutamine repeats) (UniProt P42858)
Experiment: cell-based or functional assay

Sequence of htt-N63-148Q (63 amino acid N-terminal huntingtin fragment containing 148 polyglutamine repeats) (P42858 other isoform, or with tags, fused parts or gaps limits assumed): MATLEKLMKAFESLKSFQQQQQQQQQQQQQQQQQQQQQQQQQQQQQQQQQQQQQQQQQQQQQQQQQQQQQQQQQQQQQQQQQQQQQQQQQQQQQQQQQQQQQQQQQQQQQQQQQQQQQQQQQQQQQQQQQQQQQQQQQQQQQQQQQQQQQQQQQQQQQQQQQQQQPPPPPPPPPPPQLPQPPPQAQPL

TG-catalyzed modifications of huntingtin (second experiment, HEK-293T cells) (fold decrease) | TG-modified huntingtin (81D4 immunoprecipitation, immunoblot, HEK-293T cells) (fold decrease) | carbachol-stimulated intracellular Ca2+ release (Fura-2, HEK-293T cells) | Substance | cytotoxicity (LDH assay, HEK-293T cells) | cytotoxicity (LDH assay, second experiment, HEK-293T cells)
2 | 2 |  | CaM-C-term (C-terminal CaM construct, last 72 amino acids of calmodulin) (from UniProt P0DP23 78-149) | 40 % decrease | 40 % decrease
2 | 2 | 10 % decrease | CaM-center (center region CaM construct, 77 amino acids in the center of calmodulin) (from UniProt P0DP23 37-113) | 40 % decrease | 50 % decrease
